Laboratory results reported in publication PMC7948952, “Structural basis for multifunctional roles of human Ints3 C-terminal domain” (The Journal of Biological Chemistry, 2020).
Substitutions are numbered along the chain they refer to. Numbers in names are those of the source. Blank lines part the entries; values can stand above or below the binder they belong to.

Key:
[1] = target: T1, GST-tagged Ints3-555-976 R863A/D869A (human, UniProt Q68E01-2 555-976, R863A | D869A); assay: pull-down; coexpression in E. coli of GST-tagged Ints3 constructs (pGEX-6p-1) and MBP-Ints6-807-887 (pRSFDuet-1), GST or MBP pull-down ('coexpression and reverse pull-down'); settings: partners not purified
T1 construct: numbers count on: UniProtKB Q68E01-2, 1042 amino acids; source: E. coli BL21, coexpressed with MBP-Ints6-807-887; also captured on glutathione Sepharose from lysate; not shown: GST, N-terminal, kept

[2] = target: T2, GST-tagged Ints3-555-976, wild type (human, UniProt Q68E01-2 555-976); assay: pull-down; in vitro GST pull-down: GST-Ints3 captured on glutathione Sepharose 4B from BL21 lysates, incubated with about 15 μg purified MBP-Ints6-807-887; 20 mM Tris-HCl pH 8.0, 300 mM NaCl, 0.1% Nonidet P-40, 5% glycerol, 2 mM DTT, 2 h at 4 °C; anti-MBP blot; settings: both partners purified
T2 construct: numbers count on: UniProtKB Q68E01-2, 1042 amino acids; also called GST-Ints3; GST-tagged Ints3 C-terminal domain; source: E. coli BL21, captured on glutathione Sepharose from lysate; also coexpressed with MBP-Ints6-807-887; not shown: GST, N-terminal, kept

GST-tagged Ints3-555-899 = target: T3, GST-tagged Ints3-555-899 (human, UniProt Q68E01-2 555-899); assay: as above; settings: both partners purified
T3 construct: numbers count on: UniProtKB Q68E01-2, 1042 amino acids; source: E. coli BL21, captured on glutathione Sepharose from lysate

[3] = target: the molecule itself; assay: cross-linking; glutaraldehyde, final concentration 0.075%, SDS-PAGE; negative control with 1% SDS and 20 mM DTT added before the reaction
[4] = target: the molecule itself; assay: SEC; Superdex 200 Increase 10/300 Gl, 100 μl of approximately 2 mg/ml, 0.5 ml/min; wild-type and mutant Ints3-555-976
[5] = target: Ints3 C-terminal domain (Ints3-555-976) WT (human, UniProt Q68E01-2 555-976); assay: EMSA; roughly 100% bound at 25 uM protein; 20 mM Hepes pH 7.4, 100 mM NaCl, 1 mM MgCl2, 1 mg/ml BSA, 2 mM DTT, 5% glycerol; on ice 30 min; 7.5 nM probe; native 5% PAGE in 1X TBE; settings: protein: recombinant; tags: His or GST (GST cleaved); chain copies: 2; label: 5' 32P; single strand

binding result [1]: binds
binding result [2]: binds
binding result (GST-tagged Ints3-555-899): binds
B1: MBP-Ints6-807-887 (domain or fragment, UniProt Q9UL03 807-887, looked up)
chain: EVNTELKAQIMKEIRKPGRKYERIFTLLKHVQGSLQTRLIFLQNVIKEASRFKKRMLIEQLENFLDEIHRRANQINHINSN
notes: Integrator complex subunit 6 (Ints6, DDX26a), residues 807-887; cDNA from DNAsu; Made in a modified pMal-c2X vector: an AAAEF linker and no protease site stand between MBP and Ints6-807-887; the MBP-Ints6-807-887 region was then cloned into pRSFDuet-1; also called MBP-tagged Ints6-807-887; source: E. coli BL21-CodonPlus (DE3)-RIPL, purified (amylose resin, HiTrap Q); also coexpressed with …

B2: Ints3-555-976 (human Ints3 C-terminal domain), wild type (domain or fragment, UniProt Q68E01-2 555-976, looked up)
chain: PIKETVVEEPVDITPYLDQLDESLRDKVLQLQKGSDTEAQCEVMQEIVDQVLEEDFDSEQLSVLASCLQELFKAHFRGEVLPEEITEESLEESVGKPLYLIFRNLCQMQEDNSSFSLLLDLLSELYQKQPKIGYHLLYYLRASKAAAGKMNLYESFAQATQLGDLHTCLMMDMKACQEDDVRLLCHLTPSIYTEFPDETLRSGELLNMIVAVIDSAQLQELVCHVMMGNLVMFRKDSVLNILIQSLDWETFEQYCAWQLFLAHNIPLETIIPILQHLKYKEHPEALSCLLLQLRREKPSEEMVKMVLSRPCHPDDQFTTSILRHWCMKHDELLAEHIKSLLIKNNSLPRKRQSLRSSSSKLAQLTLEQILEHLDNLRLNLTNTKQNFFSQTPILQALQHVQASCDEAHKMKFSDLFSLAEEY
notes: numbers count on: UniProtKB Q68E01-2, 1042 amino acids; For crystallisation a trace of trypsin (1:1000 w/w) was added; it cuts after K557 and after K914, and both fragments stay in the crystal; SeMet protein was used for phasing; also called HR1-11; Band I; not shown: GST, N-terminal, cleaved
stoichiometry N [3]: 2

B3: Ints3-555-976 R788E/K789E (domain or fragment, human, UniProt Q68E01-2 555-976, looked up)
chain: B2 chain with R234E, K235E
notes: numbers count on: UniProtKB Q68E01-2, 1042 amino acids; source: purified to homogeneity (gel filtration)
stoichiometry N [4]: 2

B4: Ints3-555-976 K851E (domain or fragment, human, UniProt Q68E01-2 555-976, looked up)
chain: B2 chain with K297E
notes: numbers count on: UniProtKB Q68E01-2, 1042 amino acids; also called K851 E charge mutant; source: purified to homogeneity (gel filtration)
stoichiometry N [4]: 2

Binder: UUUUUUUUUUUUUUUUUUUUUUUUUUUUUU (ssRNA) [rU30]
binding result [5]: binds
